Assay results taken from PMC5900763, “Granule-stored MUC5B mucins are packed by the non-covalent formation of N-terminal head-to-head tetramers” (The Journal of Biological Chemistry, 2018).

Legend:
[1] = biological target: the molecule itself; experiment: SEC; Superose 6 3.2/300, 50 mM MES pH 6.2, 150 mM NaCl, 4 mM CaCl2, 0 h incubation, room temperature; covalent dimers to tetramer
[2] = biological target: the molecule itself; experiment: SEC; Superose 6 3.2/300, 50 mM MES pH 6.2, 150 mM NaCl, no Ca2+

B1: MUC5B N-terminal part (MUC5B-N), recombinant covalent dimer (domain or fragment, human, UniProt Q9HC84 26-1304, looked up)
chain: QGPVEPSWENAGHTMDGGAPTSSPTRRVSFVPPVTVFPSLSPLNPAHNGRVCSTWGDFHYKTFDGDVFRFPGLCNYVFSEHCRAAYEDFNVQLRRGLVGSRPVVTRVVIKAQGLVLEASNGSVLINGQREELPYSRTGLLVEQSGDYIKVSIRLVLTFLWNGEDSALLELDPKYANQTCGLCGDFNGLPAFNEFYAHNARLTPLQFGNLQKLDGPTEQCPDPLPLPAGNCTDEEGICHRTLLGPAFAECHALVDSTAYLAACAQDLCRCPTCPCATFVEYSRQCAHAGGQPRNWRCPELCPRTCPLNMQHQECGSPCTDTCSNPQRAQLCEDHCVDGCFCPPGTVLDDITHSGCLPLGQCPCTHGGRTYSPGTSFNTTCSSCTCSGGLWQCQDLPCPGTCSVQGGAHISTYDEKLYDLHGDCSYVLSKKCADSSFTVLAELRKCGLTDNENCLKAVTLSLDGGDTAIRVQADGGVFLNSIYTQLPLSAANITLFTPSSFFIVVQTGLGLQLLVQLVPLMQVFVRLDPAHQGQMCGLCGNFNQNQADDFTALSGVVEATGAAFANTWKAQAACANARNSFEDPCSLSVENENYARHWCSRLTDPNSAFSRCHSIINPKPFHSNCMFDTCNCERSEDCLCAALSSYVHACAAKGVQLSDWRDGVCTKYMQNCPKSQRYAYVVDACQPTCRGLSEADVTCSVSFVPVDGCTCPAGTFLNDAGACVPAQECPCYAHGTVLAPGEVVHDEGAVCSCTGGKLSCLGASLQKSTGCAAPMVYLDCSNSSAGTPGAECLRSCHTLDVGCFSTHCVSGCVCPPGLVSDGSGGCIAEEDCPCVHNEATYKPGETIRVDCNTCTCRNRRWECSHRLCLGTCVAYGDGHFITFDGDRYSFEGSCEYILAQDYCGDNTTHGTFRIVTENIPCGTTGTTCSKAIKLFVESYELILQEGTFKAVARGPGGDPPYKIRYMGIFLVIETHGMAVSWDRKTSVFIRLHQDYKGRVCGLCGNFDDNAINDFATRSRSVVGDALEFGNSWKLSPSCPDALAPKDPCTANPFRKSWAQKQCSILHGPTFAACRSQVDSTKYYEACVNDACACDSGGDCECFCTAVAAYAQACHDAGLCVSWRTPDTCPLFCDFYNPHGGCEWHYQPCGAPCLKTCRNPSGHCLVDLPGLEGCYPKCPPSQPFFNEDQMKCVAQCGCYDKDGNYYDVGARVPTAENCQSCNCTPSGIQCAHSLEACTCTYEDRTYSYQDVIYNTTDGLGACLIAICGSNGTIIRKAVACPG
notes: MUC5B mucin, human, N-terminal part with the von Willebrand D1, D2, D' and D3 domains, residues 26-1304 of GenBank NM_002458; Disulfide-bonded (covalent) dimer through D3; Two such dimers form the non-covalent tetramer (Dx2) at pH 6.2 with Ca2+; also called MUC5B N-terminal covalent dimer; MUC5B N terminus; not shown: His6, N-terminal, kept
[1]
  stoichiometry N: 4
[2]
  stoichiometry N: 2
